How the values were obtained:
[1] = biological target: T1, human RAGE-strep tag fusion protein (human, UniProt Q15109 23-344); assay: BIACORE capture assay: hRAGE-SA over antibody captured on anti-human Fc; steady state affinity; average of FC2-FC4
T1 construct: monomeric soluble human RAGE; also called hRAGE-SA; soluble human streptavidin-tagged RAGE
Description: (§1) The assays were performed by coating anti-human Fc antibodies onto a CM5 BIA chip with 5000 RU (pH 5.0, 7 min.) in flow cells 1-4. Each antibody was captured by flowing at 2.0 μg/ml over the anti-Fc antibodies in flow cells 2-4 (flow cell 1 was used as a reference).

[2] = biological target: T2, murine RAGE-strep tag fusion protein (murine, UniProt Q62151 23-343); assay: BIACORE capture assay: mRAGE-SA (SA-Mu RAGE) over antibody captured on anti-human Fc; 1:1 Langmuir global fit; FC4
T2 construct: also called mRAGE-strep; mRAGE-SA
T2 chain: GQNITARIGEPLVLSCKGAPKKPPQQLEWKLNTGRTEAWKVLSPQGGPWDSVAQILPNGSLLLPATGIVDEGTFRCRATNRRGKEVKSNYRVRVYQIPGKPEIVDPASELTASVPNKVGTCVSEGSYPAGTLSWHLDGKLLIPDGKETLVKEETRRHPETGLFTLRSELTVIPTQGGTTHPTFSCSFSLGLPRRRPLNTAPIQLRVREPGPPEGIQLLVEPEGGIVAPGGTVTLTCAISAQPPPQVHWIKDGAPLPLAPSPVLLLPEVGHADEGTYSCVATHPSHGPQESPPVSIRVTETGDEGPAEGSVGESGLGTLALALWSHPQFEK
Description: as §1

[3] = biological target: T1, human RAGE-strep tag fusion protein; assay: BIACORE capture assay: hRAGE-SA over antibody captured on anti-human Fc; steady state affinity; FC2
Description: as §1

[4] = biological target: rhNCAM-1 (human, UniProt P13591-1 20-603, limits assumed); assay: direct binding ELISA, receptor coated 1 µg/ml, antibody 20 µg/ml
Description: (§2) These receptors were chosen because they are cell-surface expressed, like RAGE, and their interaction with ligand is similarly dependent on charge. Tested receptors were rhVCAM-1, rhICAM-1-Fc, rhTLR4 (C-terminal His tag), rhNCAM-1, rhB7-H1-Fc mLox1-Fc, hLox1-Fc and hRAGE-Fc (as a positive control). ELISA plates were coated overnight with 1 μg/ml of the listed receptor proteins.

[5] = biological target: rhB7-H1-Fc (human, UniProt Q9NZQ7 19-239); assay: as above
Description: as §2

[6] = biological target: T3, human RAGE-Fc fusion protein (human, UniProt Q15109 23-344); assay: as above
T3 construct: amino acids 1-344 of human RAGE appended to the Fc domain of human IgG; also called hRAGE-Fc; huRAGE-Fc
Description: as §2

[7] = biological target: T4, rhVCAM-1 (human, UniProt P19320 25-698); assay: as above
T4 sequence (looked up): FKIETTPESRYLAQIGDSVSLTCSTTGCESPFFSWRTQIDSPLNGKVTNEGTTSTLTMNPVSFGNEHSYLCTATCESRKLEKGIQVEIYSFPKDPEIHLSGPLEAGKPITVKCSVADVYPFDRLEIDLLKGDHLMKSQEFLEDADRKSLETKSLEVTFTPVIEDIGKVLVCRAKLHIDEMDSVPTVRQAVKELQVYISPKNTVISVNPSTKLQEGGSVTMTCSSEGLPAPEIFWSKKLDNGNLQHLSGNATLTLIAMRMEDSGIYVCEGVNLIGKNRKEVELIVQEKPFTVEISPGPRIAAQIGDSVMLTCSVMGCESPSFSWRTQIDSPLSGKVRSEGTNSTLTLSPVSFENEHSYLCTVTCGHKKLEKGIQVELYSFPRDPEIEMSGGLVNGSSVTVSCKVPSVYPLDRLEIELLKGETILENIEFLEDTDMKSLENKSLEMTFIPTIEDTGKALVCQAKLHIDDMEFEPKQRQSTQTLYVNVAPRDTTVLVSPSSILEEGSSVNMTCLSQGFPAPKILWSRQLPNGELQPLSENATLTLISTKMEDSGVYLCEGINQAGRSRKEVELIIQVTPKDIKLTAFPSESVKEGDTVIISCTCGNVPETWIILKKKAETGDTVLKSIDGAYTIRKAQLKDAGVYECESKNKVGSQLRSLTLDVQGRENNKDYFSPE
Description: as §2

[8] = biological target: hLox1-Fc (human, UniProt P78380 61-273); assay: as above
Description: as §2

[9] = biological target: T5, rhICAM-1-Fc (human, UniProt P05362 28-480); assay: as above
T5 construct: also called rhlCAM-1-Fc
Description: as §2

[10] = biological target: mLox1-Fc (mouse, UniProt Q9EQ09 60-363, limits assumed); assay: as above
Description: as §2

[11] = biological target: T1, human RAGE-strep tag fusion protein; assay: BIACORE capture assay: hRAGE-SA over antibody captured on anti-human Fc; 1:1 Langmuir global fit; FC3
Description: as §1

[12] = biological target: T3, human RAGE-Fc fusion protein; assay: ligand competition ELISA, panel 'Blocks hRAGE-Fc interaction with S100-A'; blocked ligand S100-A
[13] = biological target: T2, murine RAGE-strep tag fusion protein; assay: BIACORE capture assay: mRAGE-SA (SA-Mu RAGE) over antibody captured on anti-human Fc; 1:1 Langmuir global fit; average of FC2-FC4
Description: as §1

[14] = biological target: T3, human RAGE-Fc fusion protein; assay: ligand competition ELISA, panel 'Blocks hRAGE-Fc interaction with S100-B'; blocked ligand S100-B

rhB7-H1-Fc, sequence (Q9NZQ7 19-239 limits assumed): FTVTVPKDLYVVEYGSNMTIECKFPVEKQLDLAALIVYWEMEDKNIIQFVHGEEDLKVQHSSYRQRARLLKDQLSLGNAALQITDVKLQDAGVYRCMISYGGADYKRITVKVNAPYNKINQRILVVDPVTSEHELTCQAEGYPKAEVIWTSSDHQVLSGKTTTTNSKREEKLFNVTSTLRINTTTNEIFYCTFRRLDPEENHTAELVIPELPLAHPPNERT
T5 sequence (P05362 28-480 limits assumed): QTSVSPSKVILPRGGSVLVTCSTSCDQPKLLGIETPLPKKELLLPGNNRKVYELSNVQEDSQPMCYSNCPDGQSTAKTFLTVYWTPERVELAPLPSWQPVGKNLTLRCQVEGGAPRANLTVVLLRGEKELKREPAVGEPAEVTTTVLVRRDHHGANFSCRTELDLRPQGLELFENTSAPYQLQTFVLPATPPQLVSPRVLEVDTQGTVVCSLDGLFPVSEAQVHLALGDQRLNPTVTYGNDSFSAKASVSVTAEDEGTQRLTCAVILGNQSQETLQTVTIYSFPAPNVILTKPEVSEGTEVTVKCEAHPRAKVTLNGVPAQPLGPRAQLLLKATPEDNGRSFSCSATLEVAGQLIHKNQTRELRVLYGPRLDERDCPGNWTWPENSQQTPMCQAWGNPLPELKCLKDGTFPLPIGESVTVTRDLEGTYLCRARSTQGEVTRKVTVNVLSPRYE
mLox1-Fc, sequence (Q9EQ09 60-363 limits assumed): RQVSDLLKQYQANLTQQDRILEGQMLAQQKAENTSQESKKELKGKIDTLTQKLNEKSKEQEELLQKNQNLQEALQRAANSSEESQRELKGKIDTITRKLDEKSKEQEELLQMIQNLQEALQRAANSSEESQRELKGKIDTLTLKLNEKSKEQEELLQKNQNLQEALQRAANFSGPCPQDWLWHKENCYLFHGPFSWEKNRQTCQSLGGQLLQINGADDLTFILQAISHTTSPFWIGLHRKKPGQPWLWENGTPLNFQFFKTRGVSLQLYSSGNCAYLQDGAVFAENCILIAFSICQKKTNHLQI
rhNCAM-1, sequence (P13591 other isoform, or with tags, fused parts or gaps limits assumed): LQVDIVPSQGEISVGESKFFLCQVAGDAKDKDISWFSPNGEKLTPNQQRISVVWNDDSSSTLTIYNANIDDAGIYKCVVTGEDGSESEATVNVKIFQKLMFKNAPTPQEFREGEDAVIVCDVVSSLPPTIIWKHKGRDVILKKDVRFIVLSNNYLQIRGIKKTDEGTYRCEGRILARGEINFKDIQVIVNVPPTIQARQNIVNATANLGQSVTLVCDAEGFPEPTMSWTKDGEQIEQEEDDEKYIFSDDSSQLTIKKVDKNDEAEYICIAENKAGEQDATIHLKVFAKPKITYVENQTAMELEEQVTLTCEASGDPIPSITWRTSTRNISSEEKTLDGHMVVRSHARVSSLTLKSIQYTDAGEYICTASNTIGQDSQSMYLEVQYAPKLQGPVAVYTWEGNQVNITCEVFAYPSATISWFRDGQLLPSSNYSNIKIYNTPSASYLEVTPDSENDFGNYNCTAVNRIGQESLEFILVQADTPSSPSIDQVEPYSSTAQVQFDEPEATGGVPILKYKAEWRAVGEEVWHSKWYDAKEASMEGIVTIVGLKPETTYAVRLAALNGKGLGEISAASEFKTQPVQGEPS

B1: chimeric XT-M4 (antibody, V domains shown)
VH: EVQLVESGGGLVQPGRSLKLSCVVSGFTFNNYWMTWIRQTPGKGLEWVASINNSGDNTYYPDSVKDRFTISRDNAKSTLYLQMNSLRSEDTATYYCTRGGDITTGFDYWGQGVMVTVSS
VL: DIQMTQSPSSMSVSLGDTITITCRASQDVGIYVNWFQQKPGKSPRRMIYRATNLADGVPSRFSGSRSGSIYSLTISSLESEDVADYHCLEFDEHPLTFGSGTKVEIK
modifications: N-linked oligosaccharide at Asn52 (CDR2) on part of the heavy chains
notes: rat XT-M4 variable regions fused to human kappa light chain and human IgG1 heavy chain constant regions; L234A and G237A in the human IgG1 Fc region; also called chimeric antibody XT-M4; XT-M4-A-1
- Kd [1]: 11 nM
- Kd [2]: 2 nM
- koff [2]: 0.0041 s⁻¹
- kon [2]: 2.1e+06 M⁻¹ s⁻¹
- Kd [3]: 11 nM
- OD450 [4]: 0.006
- OD450 [5]: 0.003
- OD450 [6]: 3.8
- OD450 [7]: 0.004
- OD450 [8]: 0.017
- OD450 [9]: 0.004
- OD450 [10]: 0.01
- Kd [11]: 7.33 nM
- koff [11]: 0.0271 s⁻¹
- kon [11]: 3.7e+06 M⁻¹ s⁻¹
- IC50 (read off the curve) [12]: ~0.08 mg/L
- Kd [13]: 1.9 nM
- koff [13]: 0.0041 s⁻¹
- kon [13]: 2.1e+06 M⁻¹ s⁻¹
- IC50 (read off the curve) [14]: ~0.08 mg/L
